This note sets out measurements from the Human Domainome abundance scans (Beltran et al. 2025).

± gives the uncertainty stated by the source.

The nature of this data set: abundance fitness (aPCA) (normalised: wild type 0, dead -1); higher = more abundant; growth selection in yeast, the domain comes from the species named. Conditions: Homo sapiens.
“NEDD4-like E3 ubiquitin-protein ligase WWP2 P444L, O00308” displayed an abundance fitness of 0.036 ± 0.053.

The substance “NEDD4-like E3 ubiquitin-protein ligase WWP2 P444M, O00308” had an abundance fitness of 0.09 ± 0.062. The figure for “NEDD4-like E3 ubiquitin-protein ligase WWP2 P444N, O00308” is 0.105 ± 0.038; for “NEDD4-like E3 ubiquitin-protein ligase WWP2 P444Q, O00308” it is 0.065 ± 0.068; for “NEDD4-like E3 ubiquitin-protein ligase WWP2 P444R, O00308” it is 0.083 ± 0.041. The figure for “NEDD4-like E3 ubiquitin-protein ligase WWP2 P444T, O00308” is 0.045 ± 0.063. For the substance “NEDD4-like E3 ubiquitin-protein ligase WWP2 P444V, O00308”, the abundance fitness stood at 0.065 ± 0.058. For the substance “NEDD4-like E3 ubiquitin-protein ligase WWP2 P444W, O00308”, the abundance fitness was -0.059 ± 0.05. “NEDD4-like E3 ubiquitin-protein ligase WWP2 P447A, O00308” yielded an abundance fitness of -0.234 ± 0.043. On to “NEDD4-like E3 ubiquitin-protein ligase WWP2 P447C, O00308”, for which the abundance fitness was -0.458 ± 0.07. “NEDD4-like E3 ubiquitin-protein ligase WWP2 P447D, O00308” registered an abundance fitness of -0.304 ± 0.083. Substance “NEDD4-like E3 ubiquitin-protein ligase WWP2 P447E, O00308” had an abundance fitness of -0.185 ± 0.062. The figure for “NEDD4-like E3 ubiquitin-protein ligase WWP2 P447F, O00308” is -0.331 ± 0.088; for “NEDD4-like E3 ubiquitin-protein ligase WWP2 P447H, O00308” it is -0.381 ± 0.075.

Regarding “NEDD4-like E3 ubiquitin-protein ligase WWP2 P447I, O00308”, the abundance fitness is -0.433 ± 0.051. For “NEDD4-like E3 ubiquitin-protein ligase WWP2 P447K, O00308”, the abundance fitness is -0.17 ± 0.052. Take “NEDD4-like E3 ubiquitin-protein ligase WWP2 P447L, O00308”: the abundance fitness was -0.228 ± 0.048. The figure for “NEDD4-like E3 ubiquitin-protein ligase WWP2 P447M, O00308” is -0.203 ± 0.045; for “NEDD4-like E3 ubiquitin-protein ligase WWP2 P447N, O00308” it is -0.11 ± 0.075. Take “NEDD4-like E3 ubiquitin-protein ligase WWP2 P447Q, O00308”: the abundance fitness was -0.289 ± 0.07. For the substance “NEDD4-like E3 ubiquitin-protein ligase WWP2 P447R, O00308”, the abundance fitness was -0.316 ± 0.04. In turn, “NEDD4-like E3 ubiquitin-protein ligase WWP2 P447S, O00308” showed an abundance fitness of -0.332 ± 0.046. For the substance “NEDD4-like E3 ubiquitin-protein ligase WWP2 P447T, O00308”, the abundance fitness is -0.541 ± 0.067.

As for “NEDD4-like E3 ubiquitin-protein ligase WWP2 P447V, O00308”, the abundance fitness was -0.633 ± 0.04. The substance “NEDD4-like E3 ubiquitin-protein ligase WWP2 P447W, O00308” gave an abundance fitness of -0.659 ± 0.07. The substance “NEDD4-like E3 ubiquitin-protein ligase WWP2 P447Y, O00308” displayed an abundance fitness of -0.5 ± 0.081.

Take “NEDD4-like E3 ubiquitin-protein ligase WWP2 P448A, O00308”: the abundance fitness is 0.008 ± 0.044. Take “NEDD4-like E3 ubiquitin-protein ligase WWP2 P448C, O00308”: the abundance fitness was -0.216 ± 0.074. With “NEDD4-like E3 ubiquitin-protein ligase WWP2 P448D, O00308” the figure was 0.09 ± 0.059; with “NEDD4-like E3 ubiquitin-protein ligase WWP2 P448E, O00308”, 0.045 ± 0.062; with “NEDD4-like E3 ubiquitin-protein ligase WWP2 P448F, O00308”, 0.015 ± 0.04. Substance “NEDD4-like E3 ubiquitin-protein ligase WWP2 P448G, O00308” registered an abundance fitness of -0.046 ± 0.054. With “NEDD4-like E3 ubiquitin-protein ligase WWP2 P448H, O00308” the figure was 0.043 ± 0.046; with “NEDD4-like E3 ubiquitin-protein ligase WWP2 P448I, O00308”, -0.13 ± 0.071; with “NEDD4-like E3 ubiquitin-protein ligase WWP2 P448K, O00308”, 0.108 ± 0.067. Substance “NEDD4-like E3 ubiquitin-protein ligase WWP2 P448L, O00308” had an abundance fitness of -0.013 ± 0.038.

On to “NEDD4-like E3 ubiquitin-protein ligase WWP2 P448M, O00308”, for which the abundance fitness was 0.088 ± 0.068. “NEDD4-like E3 ubiquitin-protein ligase WWP2 P448N, O00308” registered an abundance fitness of 0.071 ± 0.072. For the substance “NEDD4-like E3 ubiquitin-protein ligase WWP2 P448Q, O00308”, the abundance fitness came to 0.029 ± 0.054. Substance “NEDD4-like E3 ubiquitin-protein ligase WWP2 P448R, O00308” came in with an abundance fitness of -0.033 ± 0.047. In turn, “NEDD4-like E3 ubiquitin-protein ligase WWP2 P448S, O00308” gave an abundance fitness of -0.001 ± 0.037. Consider “NEDD4-like E3 ubiquitin-protein ligase WWP2 P448T, O00308”, for which the abundance fitness stood at 0.001 ± 0.05. In turn, “NEDD4-like E3 ubiquitin-protein ligase WWP2 P448V, O00308” came in with an abundance fitness of 0.023 ± 0.055. In the case of “NEDD4-like E3 ubiquitin-protein ligase WWP2 P448W, O00308”, the abundance fitness was -0.109 ± 0.062. In turn, “NEDD4-like E3 ubiquitin-protein ligase WWP2 P448Y, O00308” showed an abundance fitness of -0.149 ± 0.056. Take “NEDD4-like E3 ubiquitin-protein ligase WWP2 P475A, O00308”: the abundance fitness is -0.837 ± 0.037. “NEDD4-like E3 ubiquitin-protein ligase WWP2 P475C, O00308” had an abundance fitness of -1.06 ± 0.16. With “NEDD4-like E3 ubiquitin-protein ligase WWP2 P475D, O00308” the figure was -0.867 ± 0.14. “NEDD4-like E3 ubiquitin-protein ligase WWP2 P475E, O00308” came in with an abundance fitness of -0.785 ± 0.15. “NEDD4-like E3 ubiquitin-protein ligase WWP2 P475F, O00308” came in with an abundance fitness of -0.88 ± 0.1. The figure for “NEDD4-like E3 ubiquitin-protein ligase WWP2 P475G, O00308” is -1 ± 0.042.

On to “NEDD4-like E3 ubiquitin-protein ligase WWP2 P475H, O00308”, for which the abundance fitness was -0.813 ± 0.15. With “NEDD4-like E3 ubiquitin-protein ligase WWP2 P475I, O00308”, the abundance fitness was -0.523 ± 0.11. In the case of “NEDD4-like E3 ubiquitin-protein ligase WWP2 P475K, O00308”, the abundance fitness was -1.24 ± 0.27. “NEDD4-like E3 ubiquitin-protein ligase WWP2 P475L, O00308” came in with an abundance fitness of -0.876 ± 0.04. Regarding “NEDD4-like E3 ubiquitin-protein ligase WWP2 P475M, O00308”, the abundance fitness is -0.574 ± 0.062.

“NEDD4-like E3 ubiquitin-protein ligase WWP2 P475N, O00308” had an abundance fitness of -0.941 ± 0.13. The substance “NEDD4-like E3 ubiquitin-protein ligase WWP2 P475Q, O00308” had an abundance fitness of -0.836 ± 0.11.

“NEDD4-like E3 ubiquitin-protein ligase WWP2 P475R, O00308” displayed an abundance fitness of -0.933 ± 0.041. Regarding “NEDD4-like E3 ubiquitin-protein ligase WWP2 P475S, O00308”, the abundance fitness is -0.852 ± 0.054. The substance “NEDD4-like E3 ubiquitin-protein ligase WWP2 P475T, O00308” came in with an abundance fitness of -1.36 ± 0.2. In turn, “NEDD4-like E3 ubiquitin-protein ligase WWP2 P475V, O00308” came in with an abundance fitness of -0.631 ± 0.038. Regarding “NEDD4-like E3 ubiquitin-protein ligase WWP2 P475W, O00308”, the abundance fitness was -0.829 ± 0.067. On to “NEDD4-like E3 ubiquitin-protein ligase WWP2 P475Y, O00308”, for which the abundance fitness was -0.984 ± 0.15.

Take “NEDD4-like E3 ubiquitin-protein ligase WWP2 P477A, O00308”: the abundance fitness was 0.076 ± 0.052. The substance “NEDD4-like E3 ubiquitin-protein ligase WWP2 P477C, O00308” registered an abundance fitness of -0.084 ± 0.066. With “NEDD4-like E3 ubiquitin-protein ligase WWP2 P477D, O00308” the figure was -0.009 ± 0.059; with “NEDD4-like E3 ubiquitin-protein ligase WWP2 P477E, O00308”, 0.001 ± 0.05; with “NEDD4-like E3 ubiquitin-protein ligase WWP2 P477F, O00308”, -0.091 ± 0.073. “NEDD4-like E3 ubiquitin-protein ligase WWP2 P477G, O00308” showed an abundance fitness of -0.019 ± 0.031.

“NEDD4-like E3 ubiquitin-protein ligase WWP2 P477I, O00308” yielded an abundance fitness of 0.13 ± 0.075. Consider “NEDD4-like E3 ubiquitin-protein ligase WWP2 P477K, O00308”, for which the abundance fitness was -0.037 ± 0.052. Take “NEDD4-like E3 ubiquitin-protein ligase WWP2 P477L, O00308”: the abundance fitness is -0.038 ± 0.034. In the case of “NEDD4-like E3 ubiquitin-protein ligase WWP2 P477M, O00308”, the abundance fitness is -0.011 ± 0.05. In turn, “NEDD4-like E3 ubiquitin-protein ligase WWP2 P477N, O00308” displayed an abundance fitness of -0.081 ± 0.053. Substance “NEDD4-like E3 ubiquitin-protein ligase WWP2 P477Q, O00308” registered an abundance fitness of -0.394 ± 0.1. Regarding “NEDD4-like E3 ubiquitin-protein ligase WWP2 P477S, O00308”, the abundance fitness was -0.02 ± 0.037. With “NEDD4-like E3 ubiquitin-protein ligase WWP2 P477T, O00308” the figure was -0.215 ± 0.068; with “NEDD4-like E3 ubiquitin-protein ligase WWP2 P477V, O00308”, 0.037 ± 0.034.
